Assay results from patent US20240059758A1 (CORAT THERAPEUTICS, published 2024).

B1: YU505-A01 (antibody, V domains shown)
VH: QVQLVQSGAEVKKPGASVKVSCKASGYTFTSYYMHWVRQAPGQGLEWMGIINPSGGSTSYAQKFQGRVTMTRDTSTSTVYMELSSLRSEDTAVYYCARDRHYYDSSGSSQATFLFDYWGQGTLVTVSS
VL: QSVLTQPPSVSGAPGQRVTISCTGSSSNIGAGYDVHWYQQLPGTAPKLLIYGNSNRPSGVPDRFSGSKSGTSASLAITGLQAEDEADYYCQSYDSSLNVFGTGTKLTVL
B2: YU505-A02 (antibody, V domains shown)
VH: QVQLVESGAEVKKPGSSVKVSCKASGGTFSSYAISWVRQAPGQGLEWMGGIIPIFGTANYAQKFQGRVTITADESTSTAYMELSSLRSEDTAVYYCARQIWAYDSSGYPVPAEYFQHWGQGTLVTVSS
VL: QSVLTQPPSVSGAPGQRVTISCTGSSSNIGAGYDVHWYQQLPGTAPKLLIYGNSNRPSGVPDRFSGSKSGTSASLAITGLQAEDEADYYCQSYDSSLSGVVFGGGTKLTVL
B3: YU505-A05 (antibody, V domains shown)
VH: QVQLVQSGAEVKKPGSSVKVSCKASGGTFSSYAISWVRQAPGQGLEWMGGIIPIFGTANYAQKFQGRVTITADESTSTAYMELSSLRSEDTAVYYCARSDSGYSGYGYFDYWGQGTLVTVSS
VL: QSALTQPASVSGSPGQSISISCTGTSSDVGRYNYVSWYQQHPGKAPKLMIYDVTNRPSGVSSRFSGSKSGNAASLTISGLQAEDEAEYYCTSYTSSNTLVIFGGGTKVTVL
B4: YU505-B06 (antibody, V domains shown)
VH: not shown
VL: SYVLTQPPSVSVAPGKTARITCGGNNIGSKSVHWYQQKPGQAPVLVIYYDSDRPSGIPERFSGSNSGNTATLTISRVEAGDEADYYCQVWDSSSDHVVFGGGTKLTVL
B5: YU505-D02 (antibody, V domains shown)
VH: QVQLVQSGAEVKKPGSSVKVSCKASGGTFSSYAISWVRQAPGQGLEWMGGIIPIFGTANYAQKFQGRVTITADKSTSTAYMELSSLRSEDTAVYYCARETSSGWSFLDYWGQGTLVTVSS
VL: SYVLTQPPSVSVAPGKTARITCGGNNIGSKSVHWYQQKPGQAPVLVIYYDSDRPSGIPERFSGSNSGNTATLTISRVEAGDEADYYCQVWDSSSDHVVFGGGTKVTVL
B6: YU505-E01 (antibody, V domains shown)
VH: QVQLVQSGAEVKKPGSSVKVSCKASGGTFSSYSIVWVRQAPGQGLEWMGGIIPIFGTTNYAQKFQGRVTITADESTSTAFMELSNLKSEDTAVYFCARSLGATRDYWGQGTLVTVSS
VL: SYVLTQPPSVSEAPRQRVTISCSGSSSNIGNNAVNWYQQLPGKAPKLLIYYDDLLPSGVSDRFSGSKSGTSASLAISGLQSEDEADYYCAAWDDSLNGPVFGGGTKVTVL
B7: YU505-E02 (antibody, V domains shown)
VH: QVQLVQSGAEVKKPGSSVKVSCKASGGTFSSYTISWVRQAPGQGLEWMGRIIPILGIANYAQKFQGRVTITADKSTSTAYMELSSLRSEDTAVYYCARDMVSVGAAGPYYFDYWGQGTLVTVSS
VL: QSVLTQPPSVSEAPRQRVTISCTGSSSNIGAGYDVHWYQQLPGTAPKLLIYGNSNRPSGVPDRFSGSKSVTSASLAITGLQAEDEADYYCQSYDSSLSGSVFGGGTKLTVL
B8: YU505-E04 (antibody, V domains shown)
VH: QVQLVQSGAEVKKPGSSVKVSCKASGGTFSSYAISWVRQAPGQGLEWMGGIIPIFGTANYAQKFQGRVTITADESTSTAYMELSSLRSEDTAVYYCARGRGYSYGHDYWGQGTLVTVSS
VL: SYELTQPPSVSEAPRQRVTISCSGSSSNIGNNAVNWYQQFPGKAPKLLIYYDDLLPSGVSDRFSGSKSGTSASLAISGLQSEDEADYYCAAWDDSLNGWVFGGGTKLTVL
B9: YU505-F03 (antibody, V domains shown)
VH: EVQLLESGAEVKKPGASVKVSCKASGYTFTGYYMHWVRQAPGQGLEWMGQINPNSGGTNYAQKFQGRVTMTRDTSISTAYMELSRLRSDDTAVYYCARGEGFDYWGQGTLVTVSS
VL: SYVLTQPPSASGTPGQRVTISCSGSSSNIGSNYVYWYQQLPGTAPKLLIYRNNQRPSGVPDRFSGSKSGTSASLAISGLRSEGEADYYCAAWDDSLSGVVFGGGTKVTVL
B10: YU505-F05 (antibody, V domains shown)
VH: EVQLLESGGGVVQPGRSLRLSCAASGFTFSSYGMHWVRQAPGKGLEWVAVMSYDGSKKYYADSVKGRFTISRDNSKNTLYLQMNSLRAEDTAVYYCVTQGMDVWGQGTLVTVSS
VL: QSVLTQPPSVSVAPGKTARITCGGNNIGSKSVHWYQQKPGQAPVLVIYYISDRPSGIPERFSGSNSGNTATLTISRVEAGDEAAYYCHVWDSSSDHVVFGGGTKLTVL
B11: YU519-A09 (antibody, V domains shown)
VH: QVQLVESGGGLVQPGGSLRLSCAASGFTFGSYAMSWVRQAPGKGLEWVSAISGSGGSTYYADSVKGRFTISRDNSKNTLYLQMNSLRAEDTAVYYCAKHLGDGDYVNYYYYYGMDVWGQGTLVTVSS
VL: SYVLTQPPSVSVAPRQTARITCGGNNIGSKNVHWYQQKPGQAPVLVVYDDNVRPSGIPERFSGSNSGNTATLTISRVEAGDEADYYCQVWLNSSDDVLFGGGTKVTVL
B12: hybrid antibody: VL YU536-D04 (SEQ ID No. 362) with VH STE90-C11 (SEQ ID No. 1305) (antibody, V domains shown)
VH: QVQLVESGGGLVQPGGSLRLSCAASGLTVSSNYMSWVRQAPGKGLEWVSVIYSGGSTYYADSVKGRFTISRDDSKNTLYLQMNSLRAEDTAVYYCARDVADAFDIWGQGTMVTVSS
VL: DIQLTQSPSSLSASVGDRVTITCRASQGISSYLAWYQQKPGKAPKLLIYAASTLQSGVPSRFSGSGSGTDFTLTISSLQPEDFATYYCQQLNSYPITFGQGTKLEIK
B13: hybrid antibody: VL YU536-D04 (SEQ ID No. 362) with VH YU537-H11 (SEQ ID No. 404) (antibody, V domains shown)
VH: EVQLLESGGGLIQPGGSLRLSCAASGLTVSSNYMSWVRQAPGKGLEWVSVIYSGGSTYYADSVKGRFTISRDNSKNALYLQMNSLRAEDTAVYYCARGESGSPYGMDVWGQGTLVTVSS
VL: DIQLTQSPSSLSASVGDRVTITCRASQGISSYLAWYQQKPGKAPKLLIYAASTLQSGVPSRFSGSGSGTDFTLTISSLQPEDFATYYCQQLNSYPITFGQGTKLEIK
B14: hybrid antibody: VL STE90-C11 (SEQ ID No. 1309) with VH YU536-D04 (SEQ ID No. 364) (antibody, V domains shown)
VH: QVQLVQSGGGLVQPGGSLRLSCAASGLTVSSNYMSWVRQAPGKGLEWVSVIYSGGSTYYADSVKGRFIISRDNSKNTLYLQMNSLRAEDTAVYYCARDLVVMGLDVWGKGTLVTVSS
VL: DIVMTQSPSFLSASVGDRVTITCRASQGISSYLAWYQQKPGKAPKLLIYAASTLQSGVPSRFSGSGSGTEFTLTISSLQPEDFATYYCQQLNSYPPFTFGPGTKVDIK
B15: hybrid antibody: VL YU537-H11 (SEQ ID No. 402) with VH YU536-D04 (SEQ ID No. 364) (antibody, V domains shown)
VH: QVQLVQSGGGLVQPGGSLRLSCAASGLTVSSNYMSWVRQAPGKGLEWVSVIYSGGSTYYADSVKGRFIISRDNSKNTLYLQMNSLRAEDTAVYYCARDLVVMGLDVWGKGTLVTVSS
VL: QSVLTQPPSVSAAPGQKVTISCSGSSSNIGNNYVSWYQQLPGTAPKLLIYDTNKRPSGIPDRFSGSKSGTSATLGITGLQTGDEADYYCATWDSSLSVGVFGGGTKLTVL
B16: hybrid antibody: VL STE90-C11 (SEQ ID No. 1309) with VH YU537-H11 (SEQ ID No. 404) (antibody, V domains shown)
VH: EVQLLESGGGLIQPGGSLRLSCAASGLTVSSNYMSWVRQAPGKGLEWVSVIYSGGSTYYADSVKGRFTISRDNSKNALYLQMNSLRAEDTAVYYCARGESGSPYGMDVWGQGTLVTVSS
VL: DIVMTQSPSFLSASVGDRVTITCRASQGISSYLAWYQQKPGKAPKLLIYAASTLQSGVPSRFSGSGSGTEFTLTISSLQPEDFATYYCQQLNSYPPFTFGPGTKVDIK

target: T1, receptor binding domain (RBD) of the S1-subunit of SARS-CoV-2 glycoprotein S (SARS-CoV-2, UniProt P0DTC2 319-541); test: ACE2:RBD competition assay, 5 µg/ml IgG

B1 was tested. Which “ACE2:RBD inhibition with 5 µg/ml IgG [%]” value did it give?
Its value is 102%.

How did the “ACE2:RBD inhibition with 5 µg/ml IgG [%]” value turn out when B2 was run?
Its value is 43.8%.

B3 was tested. Which “ACE2:RBD inhibition with 5 µg/ml IgG [%]” value did it give?
The value was 52.7%.

Which “ACE2:RBD inhibition with 5 µg/ml IgG [%]” value does the source give for B4 here?
The value was 58.5%.

With B5 as the binder, how does the “ACE2:RBD inhibition with 5 µg/ml IgG [%]” value read?
Its value is 49.4%.

B6 was tested. Which “ACE2:RBD inhibition with 5 µg/ml IgG [%]” value did it give?
Its value is 24%.

For B7, which “ACE2:RBD inhibition with 5 µg/ml IgG [%]” value is on record?
The value was 58.8%.

B8 was tested. Which “ACE2:RBD inhibition with 5 µg/ml IgG [%]” value did it give?
The value was 28%.

For B9, which “ACE2:RBD inhibition with 5 µg/ml IgG [%]” value is on record?
The value was 42.2%.

With B10 as the binder, how does the “ACE2:RBD inhibition with 5 µg/ml IgG [%]” value read?
The value was 26.7%.

With B11 as the binder, how does the “ACE2:RBD inhibition with 5 µg/ml IgG [%]” value read?
Its value is 35.6%.

target: T1, receptor binding domain (RBD) of the …; test: RBD-binding quality as compared to STE90-C11, wt

Does B12 bind?
Result: binds

Does B13 bind?
Result: binds

Does B14 bind?
Result: binds

Does B15 bind?
Result: binds

Does B16 bind?
Result: binds
